# Data: the nanobody polyreactivity screen of Harvey et al. (2022)
# Assay: yeast display, Sf9 membrane polyspecificity reagent, FACS + sequencing; frameworks hold sequencing errors
# Summary of the method: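 Nanobodies from a synthetic yeast display library (Saccharomyces cerevisiae BJ5465), induced 36–48 hours with galactose, were stained 1 hour at 4 °C with 10% biotinylated, detergent-solubilized Sf9 membrane reagent, enriched on streptavidin microbeads, then FACS-sorted. Anti-HA (expression) and streptavidin (reagent binding) fluorescence set low and high (top ~1%) gates. Polyreactivity labels come from the gate of origin. Genes were colony-PCR amplified, MiSeq 2 × 250 sequenced and filtered by CDR length.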
row,Sequence,polyreactivity (PSR sort gate)
1,QVQLVESGGGLVQAGGSLSLSCAASGSIFRINAMGWYRQATGKERELVARISWRAGNTYYADSVKGRFTISRDNAKNTVYLQMNSLKPEDTAVYYCNADYYVTGLYGPGYDYWGQGTKVTVSS,low polyreactivity
2,QVQLVESGGGLVQAGGSLSLSCAASGSIFTHNAMGWYRQAPGKERELVAAISSGGSTNYADSVKGRFTISRDNAKNTVYLQMNSLKPEDTAVYYCAAGTQWYSQVYIYYYGGQGTQVTVSS,low polyreactivity
3,QVQLVESGGGLVQAGGSLSLSCAASGSIFYVNTMGWYRQAHGKERELVADISSGDSTYYADSVKGRFTISRDNAKNTVYFQMNSLKPEDTAVYFCNADVYSWVSGKEGDYWGQGTQVTVSS,low polyreactivity
4,QVQLVESGGGLVQAGGSLSLSCAASGSILFTNAMGWYRQAPGKERELVAAISSGGSTYYADSVKGRFTISRDNAKNTVYLQMNSLKPEDTAVYYCAASDHYRWYVHRWEDPFYYWGQGTQVTLSS,low polyreactivity
5,QVQLVESGGGLVQAGGSLSLSCAASGSNFSENTMGWYRQAPGKKRELVADITSGGSTNYADSVKGRFTISRDNAKNTVYLQMNSLKPEDTAVYYCAADYHGEYDYWGQGTLVTVSS,low polyreactivity
6,QVQLVESGGGLVQAGGSLSLSCAASGSTFAYYAMGWYRQAPGKERELVAGITWTGGSTYYADSVKGRFTISRDNAKNTVYIQMNSLKPEDTAVYYCAVTYPISEFYWGVKDRYDYWGQCTQVTVSS,low polyreactivity
7,QVQLVESGGGLVQAGGSLSLSCAASGSTFGSNAMGWYRQAPAKERELVAAISWSGGRTYYADSVKGRFTISRDNAKNTVYLQMNRLIPEDTAVYYCYARQFRTMGYWGQGTQVNVSS,high polyreactivity
8,QVQLVESGGGLVQAGGSLSLSCAASGSTFSPYAMGWYRQAPGKERELVAAITGSTGSTYYADSVKGRFTISRDNAKNTVYLQMNCLKPEDTAVYYCAAVSSNAGHVSRRRGYYWGQGTQVTVSS,high polyreactivity
9,QVQLVESGGGLVQAGGSLSLSCAASGSTFVINAMGWYRPAPRKERELLAAIRGRCVSTSYADSVKGRFTISRDIAKNTVYLQMNSLKPEDTEVYYCAADSRTGYYYWGQGTQVTVSS,high polyreactivity
10,QVQLVESGGGLVQAGGSLSLSCAASGSTFYGYAMGWYRQAPGKERELVAAITRSGGSTYYADSVKGRFTISRDNAKNTVYLQMNSLTPEDTAVYYCAAERLYYYVYWGQGTQVTVSS,low polyreactivity
11,QVQLVESGGGLVQAGGSLSLSCAASGSTIGPNAMGWYRQAPGKERDLVAAINTRGGSTYYADSVKGRFTISRDHANNTVYLQMNSLKPEDTAVYYCAAEYVVWYLDRFNYWGQGTQVTVSS,high polyreactivity
12,QVQLVESGGGLVQAGGSLSLSCAASGTFYGNTMGWYRQAPGKERELVAVISIDGSTNYADSVKGRFTISRDNAKNTVYLQMNCLKPEDTAVYYCNARNQWRTVGKYDYWGQGTQVSVSS,low polyreactivity
13,QVQLVESGGGLVQAGGSLSLSCAATAFTFTYYAMGWYRQAPGKERELVAAITYSGGTTYYADSVKGRFTISRDNAKNTVYLQMNSLKPEDTAVYYCAAVPYYVLARSFYRYGYWGQGTQVTVSS,low polyreactivity
14,QVQLVESGGGLVQAGGSLSLSCAATGNTFYINNMGWYRQAPGKEREFVAAITWSGGPTYYADSVKGRFTISRDNAKNTVYLQMNSLKPEDTAVYYCAARRSGRWTGWTFYYWGQGTQVTVSS,high polyreactivity
15,QVQLVESGGGLVQAGGSLSLSCAATGSIFLHNAMGWYRQAPGKERELVAVITSRGGSTYYADSVKGRFTISRDNAKNTVYLQMNSLKPEDTAVYYCAAPAYHKRTSRGDYWGQGTQVTVSS,low polyreactivity
16,QVQLVESGGGLVQAGGSLSLSCADSGSTIYRYAMGWNRQAPGKEREFVATISRSGGGTYYADSEKGRLTISRDNAMNTVYLQMISLKPEDTSVYYCAARDVVQAGYYVKKYDYWGQGTQVTVSS,high polyreactivity

row,Sequence,polyreactivity (PSR sort gate)
1,QVQLVESGGGLVQAGGSLSLSCASTGFIITQNAMGWYRQAHGKERYLVAAISWRAGSTYYADSVKGRFTISRDNAKNTVYLQMNSLKPEDTAVYYCATRQTKYSNYRGDYWGQGTQVTVSS,high polyreactivity
2,QVQLVESGGGLVQAGGSLSLSCDASGRIIHSYAMGWYRQEPGKERELVAAISWSGTSTYYADSVKGRFTISRDNAKNTVYLQMNSLKPEDTEVYYCAARGRYVFDGYRMYFWGQGSQVTVSS,high polyreactivity
3,QVQLVESGGGLVQAGGSLSLSCDASGSTFYYNAMGWYRQAPGKERELVAAITFTGGSTYADSVKGRFTISRDNAKNTVYLQMNSLKPEDTAVYYCSATIQGHDYLGTGYDYWGQGTQVTVSS,low polyreactivity
4,QVQLVESGGGLVQAGGSLSLSCSASGSIFAGYARGWYRQAPGKERELVAAISVSGGGTYYADSVKGRFTISRDNAKNTVYLQMNSLKPEDTAVYYCAATGSSRYGRNYYSWGQGTQVTVSS,high polyreactivity
5,QVQLVESGGGLVQAGGSLSLSSAASGRTFSGYAMGWYRQAPGKERELVAAIDRGDGTNYADSVKGRFTISRDNAKNTVYLQMNSLKPEDTAVYYCAADYSYGSTSHTYTGFDYWGQGTQVTVSS,low polyreactivity
6,QVQLVESGGGLVQAGGSLSLTCAASGRILYRYAMGWYRPAPGKERDLVAAISWSGGSTYYADSVKGRFTISRDNAKNTVYLQLYSLKPEDTAVYYCNAVRASRSGGFDYWGQGTQVTVSS,high polyreactivity
7,QVQLVESGGGLVQAGGSLSLTWAASGRTFLEYTMGWYRQAPGKERELVAAISSTGGSTNYADSVKGRFTISRDNAKNSVYLQMNSVKPEDTAVYYCAARLRRRSATSTRMGYWGLGTQVTVSS,high polyreactivity
8,QVQLVESGGGLVQAGGSPRLSCAASGRIFGVNAMGWYRQAPGKERELVAAISVSGDSTYYADSVKGRFTISRDNAKNTVYLQMNSLKPEDTAVYYCYAGYTFVPADLTDEYYWGQGTQVTVSS,low polyreactivity
9,QVQLVESGGGLVQAGGSPRLSCAASGRTFRSNAMGWYRQAPGKERELVAAISWSGGSTYYADSVKGRFTISRDNAKNTVYLQLNSLKPEDTAVYYCAAGSYWSPYGQSFWPKYDYWGQGSQVTVSS,high polyreactivity
10,QVQLVESGGGLVQAGGSRRISWAASGSTFPWNVMGWYRQAPGKERELVAAISSSDGRTYYADSVKGRFTISRDNAKNTVYLQMNSLNPDDTAVDYCAASVAYYWYRTWLFDYDYWGQGTEVTVSS,high polyreactivity
11,QVQLVESGGGLVQAGGSRRLSCAASGLTFANYVMGWYIQAPGKERELVAAISRSGGSTYYADSVKGRFTISRDNAKNTVYLQMNSLNPEDTAVYYCAAAALDPKGSRYDYWGQGTQVTVSS,low polyreactivity
12,QVQLVESGGGLVQAGGSRRLSCAASGLTVHDNGMGWYRQAPGQEREVVAAISWSDGTTYYADSVKGRVSISRDNAKNTVYLQMNSLKPEDTAVFYCAAEAYYFWDLVDEDYWGQGTQVTVSS,high polyreactivity
13,QVQLVESGGGLVQAGGSRRLSCAASGNTFTWYTMGWYRQAPAKERELVAVITSDGSTYYADSVKGRFTISRDNAKNTVYLQMNSLKPEDTAVYYCNALSADWYPEEDYWGQGTQVTVSS,low polyreactivity
14,QVQLVESGGGLVQAGGSRRLSCAASGRIFGVYAMGWYRQAPGKERELVAAIDRRGGRTYYADSVKGRFTISRDNAKNTVYLQMNSLKPEDTAVYYFATARYRADMGYWGQGTQVTVSS,high polyreactivity
15,QVQLVESGGGLVQAGGSRRLSCAASGRTFYKYAMGWYRQAPGKERELVAAISGGGTTNYADSVKGRFTISRDNAKNTVYLQMNSLKPEDTAVYYCNAARTRWATGYDYWGQGTQVTVSS,low polyreactivity
